Experimental data from the supplement of paper PMC11811203.

B1: THAP1; numbered along this chain (parent)
chain: MVQSCSAYGCKNRYDKDKPVSFHKFPLTRPSLCKEWEAAVRRKNFKPTKYSSICSEHFTPDCFKRECNNKLLKENAVPTIFLCTEPHDKKEDLLEPQEQLPPPPLPPPVSQVDAAIGLLMPPLQTPVNLSVFCDHNYTVEDTMHQRKRIHQLEQQVEKLRKKLKTAQQRCRRQERQLEKLKEVVHFQKEKDDVSERGYVILPNDYFEIVEVPA

Variants of: B1
Test: THAP1 transcriptional activity (GFP+/GFP- enrichment relative to wild-type constructs) (ratio to WT); higher = more THAP1 activity (PSMB5 reporter activation)
Conditions: with PSMB5 promoter-GFP reporter
Procedure, shortened: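 Activity values are replicate-mean bright/dim read fold changes divided by the mean of wild-type synonymous constructs. They come from a human THAP1 site-saturation library (residues 2–213, each changed to all 20 amino acids) delivered by lentivirus at MOI ~0.3, in duplicate, into THAP1-knockout HEK-293T cells with mClover3 at endogenous PSMB5. BFP+ cells were sorted into GFP-dim and GFP-bright bins after five days, and variants were counted by Illumina sequencing of genomic DNA amplicons.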

Variant	THAP1 transcriptional activity
S55T	0.128
S55D	0.077
S55Q	0.168
N136K	0.142
E207F	0.867
E207M	0.796
R29P	0.135
R29D	0.187
Y50Q	0.0845
Y50I	0.112
Y50P	0.103
F22C	0.0658
C5M	0.18
R196S	1.36
R196T	1.47
S51H	0.145
S51F	0.102
S51D	0.0561
F132I	0.806
P122Q	0.769
P122M	0.226
S52A	1.55
V131Y	0.27
E174C	1.18

Variant	THAP1 transcriptional activity
P104G	1.2
L94C	0.962
L94I	2.23
L129E	0.516
Y205C	1.28
V183S	1.48
V183Q	1.52
R13I	0.116
I116F	0.452
P47L	0.242
P47R	0.0941
P47H	0.106
P47V	0.712
L32P	0.113
L32S	0.21
T142F	0.386
T142C	0.803
Y8K	0.356
Y8W	1.08
N69T	0.226
N69E	0.0951
P106C	1.25
P106S	2.1
S21H	0.0793

Variant	THAP1 transcriptional activity
S21W	0.115
S21Q	0.176
F81S	0.443
K49E	0.105
K49Q	0.317
K49D	0.12
K49H	0.0815
K49I	0.398
K49R	0.427
E35W	0.203
E35P	0.243
P212I	1.75
H144A	1.5
H144Y	0.802
E210V	1.06
E210D	1.07
T165V	0.976
T165N	1.38
D113E	0.669
D113S	0.697
F25M	0.131
P19A	0.691
P19D	0.681
P19C	0.529

Variant	THAP1 transcriptional activity
P19E	0.528
A114H	0.483
A114E	0.768
A114S	0.612
V112R	0.921
S4R	0.164
V109W	0.467
V109G	1.96
V109S	1.31
R175I	0.699
R175K	1.17
F63D	0.063
F63C	0.139
F63H	0.0911
F63V	0.082
F63Q	0.0896
A115P	0.658
A115H	0.76
D61G	0.219
D61Q	0.282
D61H	0.228
D61R	0.22
D61W	0.145
D61L	0.209

Variant	THAP1 transcriptional activity
D61C	0.198
A76T	0.18
E98N	1.21
E98K	1.43
G197V	1.8
G197N	1.56
A166R	0.328
A166Y	0.705
C133S	1.44
K181Y	0.36
I149N	0.465
I149Y	0.445
Q99F	0.667
I80V	0.963
E182V	0.698
Q155W	0.376
S31L	1.21
L27I	0.729
E153K	0.513
E153N	0.512
F186D	1.4
R41Y	0.274
P107T	1.04
P107Q	1.2

Variant	THAP1 transcriptional activity
P107F	0.519
C54W	0.107
P96F	0.885
P96H	0.971
P96S	1.72
P96A	1.82
D15Q	1.05
D15R	0.656
E178G	0.795
E178W	0.7
R65L	1.04
R65Q	0.982
K70A	0.434
K70S	0.325
K70T	0.397
D191W	1.06
D191Y	0.661
H150C	0.635
H87F	2.09
H87P	3.55
V20F	0.204
C62S	1.72
V77M	0.439
D92A	1.55

Variant	THAP1 transcriptional activity
V184W	0.59
Q145Y	0.618
Q145F	0.716
V199A	0.703
G117T	0.51
D88C	0.815
N203W	0.535
N203V	0.886
L163V	0.545
T28M	0.3
F58Q	0.0792
F58P	0.0346
Y137D	0.172
Y137Q	0.186
Y137P	0.117
H185K	1.87
H185I	0.617
N12C	0.0986
N12T	0.097
K89E	1.6
K89V	1.41
K89R	0.657
H135V	0.227
H135M	0.0946

Variant	THAP1 transcriptional activity
H135D	0.195
H135E	0.396
L152C	0.209
L152F	0.236
L152G	0.249
M143Q	0.669
A213V	0.455
V193Y	0.789
E91K	2.46
C67I	0.198
C67W	0.116
C67F	0.147
Q176A	0.567
W36T	0.143
W36E	0.13
P30Q	0.583
P30F	0.129
F206P	0.832
V127N	0.997
V127I	0.501
P60Y	0.259
P60C	0.174
P60D	0.532
P60F	0.333

Variant	THAP1 transcriptional activity
P60H	0.509
T138S	1.07
T138A	2.41
T138R	0.375
K161W	0.242
K161F	0.232
K161T	0.505
Q151C	0.782
T79Q	0.296
T79V	0.326
T79Y	0.151
P26Q	0.222
P26F	0.0724
E37H	0.454
E37A	0.542
E37G	0.195
E37V	0.484
E37D	0.182
K16F	0.117
K16I	0.197
K16D	0.0673
K16E	0.125
K16W	0.208
K16P	0.334

Variant	THAP1 transcriptional activity
C83R	1.54
C83Q	3.29
C83H	2.25
C83F	1.21
A39I	0.271
A39S	0.512
A39R	0.673
K164Q	0.304
N75L	0.286
N75C	0.38
Y14Q	0.142
I53T	0.111
I53D	0.133
P103K	1.31
V156K	0.343
V156T	0.468
Q111N	0.81
L123K	0.809
A38M	0.788
A38S	0.593
A38F	0.511
A38R	1.14
P108Q	1.31
P78E	0.463

Variant	THAP1 transcriptional activity
P78Q	0.241
V209Y	0.755
M120S	0.984
S194E	1.11
S194C	0.978
L71W	0.259
L71C	1.42
L71R	0.39
L71N	0.266
L93I	1.37
Q97Y	0.765
R42C	0.114
R42K	0.189
K46G	0.0852
E66R	0.539
E66A	1.36
E66C	1.21
E66F	0.996
D134W	0.177
D134I	0.153
E85M	0.346
E85I	1.04
R172Q	0.364
R172D	0.201

Variant	THAP1 transcriptional activity
R172N	0.41
R172C	0.157
H57F	0.126
L118I	1.1
K43H	0.626
V139L	1.18
E157D	0.766
E157C	0.685
K188I	0.858
S130A	0.566
S6M	0.172
S6L	0.0726
P86H	0.865
P86L	0.608
P86Y	0.685
P86V	1.04
P86W	0.533
K190G	0.878
K190F	0.86
D17S	1.49
P121R	0.501
P121D	0.48
Q3K	0.266
Q173E	0.149

Variant	THAP1 transcriptional activity
D192V	1.22
C10S	0.308
C10M	0.103
C10L	0.167
C10K	0.156
Q168D	0.417
Q168L	0.433
L82T	2.19
L82H	1.27
F45K	0.0558
H23C	0.0806
K24M	0.118
N68R	0.161
N68T	0.179
N68H	0.2
G9Y	0.149
G9N	0.241
G9C	0.261
T48P	0.174
T48Q	0.0994
T48I	0.123
T48C	0.128
T48L	0.115
T48R	0.132

Variant	THAP1 transcriptional activity
V2Y	0.16
N128F	0.259
N128L	0.284
N128V	0.346
N44Y	0.297
C170G	0.353
I208E	1.41
I208Y	1.14
K11W	0.0942
R160D	0.216
R160G	0.224
R160F	0.252
R160I	0.228
E140W	1.1
E140C	0.908
E140Y	1.16
E74N	0.686
L72E	0.322
L72G	0.189
E56S	0.473
E56G	0.114
E56T	0.336
